Source: the supplement of paper PMC10567573
± gives the standard deviation.

Test: protein stability index of a GFP-peptide fusion (GPS, HEK-293T) (PSI 1-6); higher = more stable
Conditions: c terminus: a fixed tail appended
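Further: 24-mer peptide tiles fused after GFP, lentivirally expressed, FACS-sorted into six equal bins by GFP/DsRed ratio, decoded by Illumina sequencing, PSI is the read-weighted mean bin number.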

Row | Sequence | protein stability index (treatment: DMSO) | protein stability index (treatment: MLN4924 1 uM, 8 h)
1 | VEEGNVQTLLPAACLLQLAEIQEA [KLHL20] | 3.58 ± 0.52 | 3.84 ± 0.43
2 | KYSFLQFDPAPRRGEPHVTRRTPD [PPP2CA] | 4.04 ± 0.27 | 3.85 ± 0.19
3 | ANYLEKVRQLERENAELESRIQEW [KRT36] | 4.27 ± 0.3 | 4.46 ± 0.16
4 | NTRFVVDPSIFTAQPNTMLGRMFG [BTBD10] | 2.51 ± 0.52 | 2.44 ± 0.16
5 | FIIEYYNIRPADSRWVRDPRYRED [FBXO34] | 2.44 ± 0.53 | 2.26 ± 0.29
6 | RKRIRTYLKSCRRMKKNGMEMTRP [NOL4L] | 3.28 ± 0.21 | 3.32 ± 0.22
7 | YQVHDYLRSKLCSLYENDCIFDKF [PPP2R2B] | 2.58 ± 0.71 | 2.27 ± 0.48
8 | EAFQLYQEAAQLDMLLEKLPQVAE [FLOT1] | 2.43 ± 0.37 | 2.69 ± 0.44
9 | SVGHNWRKRMGTRRGRHEQSPTSR [C22orf15] | 4.32 ± 0.065 | 4.49 ± 0.25
10 | SADVVSPSGHSDAQTLAMMLQEQL [PPFIA4] | 4.54 ± 0.32 | 4.97 ± 0.35
11 | HRYIAYMANQEAAIQAFLDKCSAP [IQUB] | 2.51 ± 0.2 | 2.38 ± 0.46
12 | KESLCISITVSKVDKDQPSILNSC [FBXO34] | 2.28 ± 0.33 | 2.09 ± 0.28
13 | NGVLEPLYLCPNGARCATWFQDPT [SLC25A39] | 2.48 ± 0.19 | 2.47 ± 0.074
14 | TIEERVNILFDFVKKKKEEGVIDS [EIF5] | 3.68 ± 0.065 | 3.39 ± 0.29
15 | WCGISTDMWRSENQNRAYVTLAAH [ZBED1] | 2.37 ± 0.4 | 2.07 ± 0.05
16 | VRNNRSIIKQLKDVFERDWYSPYA [PLD5] | 2.41 ± 0.54 | 2.41 ± 0.21
17 | EGSLCAAHLPKAQLSGYAVEATRN [FBF1] | 4.01 ± 0.17 | 3.99 ± 0.087
18 | EADKNDKAVKDLVVLLFETALLSS [HSP90AB1] | 2.13 ± 0.067 | 2.2 ± 0.39
19 | TQVKVVKFSYMWTINNFSFCREEM [SPOPL] | 2.65 ± 0.92 | 2.77 ± 0.72
20 | DAVTIPCGHTFCRLCLPALSQMGA [TRIM15] | 2.47 ± 0.35 | 2.17 ± 0.27
21 | QTVFQKKNLQQTTNTTSTQMTNIG [IQUB] | 4.08 ± 0.2 | 4.28 ± 0.27
22 | AGGQDMADSMLMQGSRGLTDQAIF [HDAC6] | 3.73 ± 0.054 | 3.86 ± 0.38
23 | LSNQLAVTFREENTIAFRHLFLLG [MCOLN1] | 2.48 ± 0.11 | 2.5 ± 0.18

Row | Sequence | protein stability index (treatment: DMSO) | protein stability index (treatment: MLN4924 1 uM, 8 h)
24 | DTVEIREVHERNDGIDPFPLLMNR [EFHC1] | 4.3 ± 0.15 | 4.42 ± 0.25
25 | LTLCRSDLEAQMESLKEELLSLKQ [KRT33B] | 2.41 ± 0.28 | 2.8 ± 0.24
26 | HEKIGFPAARRCHSCVQIKNDVFI [KLHDC10] | 1.89 ± 0.31 | 1.73 ± 0.27
27 | FGDSPKAEKRQIGDQEGPRPARST [FBF1] | 5.11 ± 0.47 | 5.08 ± 0.36
28 | ALLFIPRRAPFDLFENKKKKNNIK [HSP90AB1] | 2.19 ± 0.27 | 
29 | PNGKHSTNFVSRYDPRFNSWIQLP [KLHL14] | 2.32 ± 0.097 | 2.58 ± 0.24
30 | EYQVLLDVKARLEGEIATYRHLLE [KRT36] | 2.54 ± 0.32 | 2.53 ± 0.29
31 | FQREALENSHTNTEVLRNMGFAAK [CHMP4C] | 3.59 ± 0.21 | 4.08 ± 0.28
32 | VLVNLVPAHKNLNKQAYDLAKALL [PDS5B] | 3.47 ± 0.59 | 3.07 ± 0.89
33 | VQQWLQKGTPASKLILGMPTYGRS [CHIT1] | 2.25 ± 0.25 | 2.51 ± 0.29
34 | DPVRQCAECALVSLKEAEFYDKQL [ZFYVE21] | 3.62 ± 0.046 | 3.67 ± 0.32
35 | MKALILVGGYGTRLRPLTLSTPKP [GMPPB] | 2.18 ± 0.61 | 2.23 ± 0.23
36 | LESSEELLETANQTLQAMDSEDFP [FSD1] | 5.4 ± 0.19 | 5.57 ± 0.1
37 | VGVFLDFESGSVSFLNVTKSSLIW [TRIM43] | 3.08 ± 0.73 | 2.506 ± 0.003
38 | FVESSGGGSSAVGQFVSLDGAGKT [BRF1] | 2.94 ± 0.52 | 3.44 ± 0.58
39 | STPRCAQQAALPRLSRRMASQHSY [CBY2] | 2.3 ± 0.29 | 2.37 ± 0.079
40 | DNHNLIERRRRFNINDRIKELGTL [TFE3] | 3.33 ± 0.13 | 3.69 ± 0.22
41 | DEPVCGRPLGIRAGPNGTLFVADA [APMAP] | 3.83 ± 0.22 | 4.03 ± 0.27
42 | ELQREWLGNREALIQFLEQVHQGI [CPN1] | 2.76 ± 0.12 | 2.97 ± 0.3
43 | SCVIPLRHGGLSLVQTTDFFYPLV [SEPHS2] | 2.42 ± 0.34 | 2.31 ± 0.45
44 | AALRIANCKLFRLQLQQGLFRIRV [GAN] | 2.8 ± 0.57 | 2.58 ± 0.51
45 | VITLDPQTASRSLVLSEDRKSVRY [TRIM15] | 3.44 ± 0.2 | 3.64 ± 0.14
46 | PTWWPLPTQVPAAEDYLTWKEWGF [SPAG8] | 2.58 ± 0.18 | 2.35 ± 0.35

Row | Sequence | protein stability index (treatment: DMSO) | protein stability index (treatment: MLN4924 1 uM, 8 h)
47 | TENRGNEKEFMKGNQLISNNIKFK [CLCN6] | 4.43 ± 0.28 | 4.52 ± 0.11
48 | ASSPKGTIENILDNDPRDLIGDFS [CDC25A] | 4.91 ± 0.21 | 4.82 ± 0.14
49 | PGACPALGTKSCSSSCAVHDLIFW [RTN3] | 2.35 ± 0.33 | 2.29 ± 0.39
50 | AVMRGQILNLTQALKDNKSPLHLV [PI4K2A] | 2.33 ± 0.33 | 2.3 ± 0.24
51 | AQFHCAYQLADWCLHHICTNYNNV [RHOBTB2] | 3.34 ± 0.36 | 3.15 ± 0.89
52 | MATPPFRLIRKMFSFKVSRWMGLA [CCDC70] | 2.51 ± 0.48 | 2.22 ± 0.099
53 | VSRRLSPRKVSTCTDHELENHSMY [TRIM9] | 3.7 ± 0.22 | 3.77 ± 0.19
54 | RKRRLFCTMEPEPVQPGMLIDVCK [TRIM35] | 2.6 ± 0.41 | 2.69 ± 0.12
55 | RMKKNGMEMTRPTPPHLTSAMAEN [NOL4L] | 4.41 ± 0.071 | 4.37 ± 0.29
56 | EEHESGIEQFSESHAIHVEEQSDQ [IQUB] | 5.61 ± 0.12 | 5.56 ± 0.11
57 | VRGEDSGRKPERRRLKTTRLKEYT [DAPK3] | 3.97 ± 0.45 | 4.51 ± 0.17
58 | LAGGKLILSLEGGYNLRALAEGVS [HDAC6] | 2.99 ± 0.76 | 2.31 ± 0.47
59 | EEVLCDSCIGNKQKAVKSCLVCQA [TRIM29] | 5.52 ± 0.17 | 5.22 ± 0.26
60 | YSDGADDTFAAYTREQLYQAIFHA [MCOLN1] | 2.54 ± 0.23 | 2.52 ± 0.37
61 | TLDGYGIHPKSIDLDNYFTARRLL [NFE2L1] | 2.37 ± 0.41 | 2.28 ± 0.26
62 | SASASTTTTVTAVTAEVDLFGDAF [SNAP91] | 4.28 ± 0.28 | 4.28 ± 0.29
63 | EDKCPGNYTNPLKVQTVIILGKVI [TMEM192] | 2.47 ± 1 | 2.29 ± 0.37
64 | VTYMNMTAYNKGRLQSSFWIVDKQ [PLD5] | 2.39 ± 0.6 | 2.33 ± 0.39
65 | KPVLAKDSSNPYPNFNFNISHQGD [AASDHPPT] | 4.22 ± 0.22 | 4.01 ± 0.18
66 | EPPVTMIFMGYQNVEDEAETKKVL [PALM] | 4.07 ± 0.37 | 4.09 ± 0.051
67 | YYGFSESAESQGLDGAGLMGFVPH [ADAMTSL2] | 3 ± 0.41 | 3 ± 0.47
68 | REEDFPSLREYNDFLEEVEEIVFN [MNAT1] | 3.82 ± 0.16 | 3.73 ± 0.28
69 | RKVCVGGKRRKDEISVDSLDFSKK [PPP2R2B] | 4.33 ± 0.26 | 4.31 ± 0.27

Row | Sequence | protein stability index (treatment: DMSO) | protein stability index (treatment: MLN4924 1 uM, 8 h)
70 | KPLYPDDYVHISSKPCDLHCTTVD [ADAMTSL2] | 4.29 ± 0.35 | 4.21 ± 0.36
71 | TSVQEADETTRSDISERPSVDDIE [C2CD2L] | 5.57 ± 0.27 | 5.61 ± 0.19
72 | DGTSQSTGGSADLFGGFADFGSAA [CLINT1] | 4.71 ± 0.25 | 4.46 ± 0.27
73 | EATPRSLRASGSLCGPHAKAPYLC | 2.77 ± 0.26 | 2.82 ± 0.23
74 | ARGTGSGEDSSTSSSTPLEDEEPQ [RTN2] | 5.7 ± 0.15 | 5.62 ± 0.24
75 | MELLRTITYQPAASTKMCEQALGK [PLK2] | 2.46 ± 0.47 | 3.06 ± 0.43
76 | PSAAQTLRSFCAWQRGLNTPEDSD [ADAMTS4] | 4.29 ± 0.25 | 4.53 ± 0.17
77 | WAAKAPGASSREEPPEEPEQCPVI [SPDEF] | 5.28 ± 0.31 | 5.27 ± 0.2
78 | QDMSQVSGKESPPVSDTPDEGDEP [IKZF1] | 5.38 ± 0.41 | 5.62 ± 0.32
79 | VFITYSMDTAMEVVKFVNFLLVNG [TRAF3IP2] | 3.39 ± 0.062 | 2.06 ± 0.64
80 | PSLHVVKVLLDCGADPDSRDFDNN [FEM1A] | 3.46 ± 0.14 | 3.82 ± 0.21
81 | SCYQVYCGRYINGHMLQHHGNSGH [HDAC6] | 2.49 ± 0.54 | 2.21 ± 0.16
82 | DKLGELSDKIGSTIDDTISKFRRK [CLINT1] | 3.32 ± 0.58 | 3.4 ± 0.39
83 | CQILELLNAELEEKMMQEAEKLKA [CCDC89] | 3.76 ± 0.26 | 3.65 ± 0.17
84 | RGIFVVRGENVVLLGEIDLEKESD [LSM1] | 2.37 ± 0.23 | 2.31 ± 0.52
85 | QAQPLRTTSTLASSLPGHAAKTLP [EHMT1] | 4.33 ± 0.16 | 4.4 ± 0.29
86 | DDFHTNDVCSFPNALVTKLLLDCG [FEM1B] | 2.55 ± 0.26 | 2.44 ± 0.2
87 | EDELSLVKGSRVTVMEKCSDGWWR [NCK2] | 3.68 ± 0.18 | 3.69 ± 0.32
88 | RLLQASGGGLTGVSGSHFVGVDGV [PCDHGA10] | 2.78 ± 0.46 | 3.01 ± 0.28
89 | VTCKDKKGYTPLHAAASNGQINVV [ANKRD44] | 3.34 ± 0.12 | 3.24 ± 0.27
